According to paper PMC8191317, “Structural and functional analysis of lignostilbene dioxygenases from Sphingobium sp. SYK-6” (The Journal of Biological Chemistry, 2021):
Where a chain is given by its changes, count along the chain named. Numbers in names are those of the source.

B1: LSD4 (Sphingobium sp. SYK-6) (protein)
chain: MAHFPDTPAFTGFNAPSRIECDIPNLVHEGTIPPELNGAFFRVQPDPQFPPRLGDDISFNGDGMITRFHIHDGQCDIKQRWAKTNKWKLENAAGKALFGSYRNPLTDDESVKGEYRSTANTNAFVFAGKLWAMKEDSPSLTMDPATMETFGFEKFGGKMTGQTFTAHPKVDPLTGNMVAIGYAASGLCTDDVCLYEISPDGELIYEAWFKVPYYCMMHDFGVTKDYLVLHIVPSIGSWDRLEKGLPHFGFDTTLPVYLGIIPRRADLKQEDIRWFKRENCFASHVMNAFQEGTKVHVDVPEAENNMFPFFPDVHGAPFNPQQAMSRLTRWTVDMASNSDEFDSVTRLTETAGEFPRIDDRMTGLPYRYGWMLEMDMKRPVELKGGSAGGFLMNCLFLKDHQTGAEQHWWCGPTSSLQEPAFIPRSKDAPEGDGWIVQVCNRLADHKSDLLIFEALDIEKGPVATVHLPFALRFGLHGNWANAEEIGLAA
notes: residues 2-489 modelled; Fe2+ enzyme, Co-LSD4 for complexes
B2: LSD4 (Sphingobium sp. SYK-6; S283F) (protein)
chain: B1 chain with S283F
notes: as for B1
B3: LSD4 (Sphingobium sp. SYK-6; S283A) (protein)
chain: B1 chain with S283A
notes: as for B1

Key:
[1] = molecular target: T1, LSD3 (Sphingobium sp. SYK-6, UniProt G2IPX7); experiment: oxygraph O2 consumption, E. coli lysate; type: biochemical; settings: 100 μM substrate
T1 construct: gene SLG_11300; pET41b, E. coli BL21(DE3) lysate
T1 sequence (G2IPX7 1-491): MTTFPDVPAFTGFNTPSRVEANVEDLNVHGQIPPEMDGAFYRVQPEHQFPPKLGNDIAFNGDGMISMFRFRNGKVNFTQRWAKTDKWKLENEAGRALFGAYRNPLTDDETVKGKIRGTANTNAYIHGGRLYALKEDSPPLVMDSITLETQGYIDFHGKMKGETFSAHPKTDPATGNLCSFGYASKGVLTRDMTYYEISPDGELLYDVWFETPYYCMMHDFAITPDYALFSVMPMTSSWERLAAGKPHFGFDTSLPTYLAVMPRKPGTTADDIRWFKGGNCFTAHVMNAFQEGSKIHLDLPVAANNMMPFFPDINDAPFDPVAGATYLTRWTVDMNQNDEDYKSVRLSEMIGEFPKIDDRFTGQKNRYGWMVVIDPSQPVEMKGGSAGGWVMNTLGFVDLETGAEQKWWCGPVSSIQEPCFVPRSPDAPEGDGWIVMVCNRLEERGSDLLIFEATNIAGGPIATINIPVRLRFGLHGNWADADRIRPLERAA

[2] = molecular target: T2, LSD2 (Sphingobium sp. SYK-6, UniProt G2IQG5); experiment: oxygraph O2 consumption, E. coli lysate; type: biochemical; settings: 100 μM substrate
T2 construct: gene SLG_36640; pET41b, E. coli BL21(DE3) lysate, co-produced with GroEL/GroES
T2 sequence (G2IQG5 1-490): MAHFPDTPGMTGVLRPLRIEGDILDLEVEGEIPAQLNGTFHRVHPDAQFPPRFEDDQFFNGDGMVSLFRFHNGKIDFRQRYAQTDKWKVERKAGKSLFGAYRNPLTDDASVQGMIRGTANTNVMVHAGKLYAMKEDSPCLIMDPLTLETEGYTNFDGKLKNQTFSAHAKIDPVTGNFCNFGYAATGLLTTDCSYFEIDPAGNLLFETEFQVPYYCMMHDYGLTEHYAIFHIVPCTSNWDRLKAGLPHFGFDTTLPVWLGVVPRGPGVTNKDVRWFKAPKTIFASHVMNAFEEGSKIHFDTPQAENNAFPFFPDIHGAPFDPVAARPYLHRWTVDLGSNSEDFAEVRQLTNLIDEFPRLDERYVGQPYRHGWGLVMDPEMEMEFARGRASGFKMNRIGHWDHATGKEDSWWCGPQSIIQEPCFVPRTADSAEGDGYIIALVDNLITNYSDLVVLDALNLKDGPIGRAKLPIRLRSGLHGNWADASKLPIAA

[3] = molecular target: T3, LSD7 (Sphingobium sp. SYK-6, UniProt G2INY0); experiment: oxygraph O2 consumption, E. coli lysate; type: biochemical; settings: 100 μM substrate
T3 construct: gene SLG_09440; pET41b, E. coli BL21(DE3) lysate
T3 sequence (G2INY0 1-483): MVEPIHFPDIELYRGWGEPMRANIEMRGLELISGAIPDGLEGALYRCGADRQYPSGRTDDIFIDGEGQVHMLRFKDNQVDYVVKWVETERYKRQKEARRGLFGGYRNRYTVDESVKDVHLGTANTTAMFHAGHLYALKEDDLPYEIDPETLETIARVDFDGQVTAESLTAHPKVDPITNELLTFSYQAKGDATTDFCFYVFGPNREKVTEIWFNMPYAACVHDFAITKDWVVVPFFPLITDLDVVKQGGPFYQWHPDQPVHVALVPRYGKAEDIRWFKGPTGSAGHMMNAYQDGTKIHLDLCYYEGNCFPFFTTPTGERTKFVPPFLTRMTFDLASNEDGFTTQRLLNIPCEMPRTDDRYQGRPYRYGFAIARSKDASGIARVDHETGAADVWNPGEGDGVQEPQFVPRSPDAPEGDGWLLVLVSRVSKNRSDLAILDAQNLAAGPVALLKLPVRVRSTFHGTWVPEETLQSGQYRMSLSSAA

[4] = molecular target: T4, LSD1 (Sphingobium sp. SYK-6, UniProt G2IR63); experiment: oxygraph O2 consumption, E. coli lysate; type: biochemical; settings: 100 μM substrate
T4 construct: gene SLG_37540; pET41b, E. coli BL21(DE3) lysate, co-produced with GroEL/GroES
T4 sequence (G2IR63 1-486): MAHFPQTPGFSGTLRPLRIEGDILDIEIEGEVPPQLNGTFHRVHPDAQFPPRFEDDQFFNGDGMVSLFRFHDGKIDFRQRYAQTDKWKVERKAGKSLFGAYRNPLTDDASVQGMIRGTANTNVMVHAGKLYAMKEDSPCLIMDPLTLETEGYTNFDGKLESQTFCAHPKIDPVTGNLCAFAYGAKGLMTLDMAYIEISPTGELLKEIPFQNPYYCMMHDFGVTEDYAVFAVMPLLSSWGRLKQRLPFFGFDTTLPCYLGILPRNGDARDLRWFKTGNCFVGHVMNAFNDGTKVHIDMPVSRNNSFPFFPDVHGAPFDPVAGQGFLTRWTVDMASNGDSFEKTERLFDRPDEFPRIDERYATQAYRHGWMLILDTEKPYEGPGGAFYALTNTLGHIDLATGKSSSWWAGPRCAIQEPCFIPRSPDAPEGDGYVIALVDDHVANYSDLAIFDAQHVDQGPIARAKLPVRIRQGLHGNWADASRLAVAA

[5] = molecular target: T5, LSD5 (Sphingobium sp. SYK-6, UniProt G2IKS0); experiment: oxygraph O2 consumption, E. coli lysate; type: biochemical; settings: 100 μM substrate
T5 construct: gene SLG_27970; pET41b, E. coli BL21(DE3) lysate
T5 sequence (G2IKS0 1-492): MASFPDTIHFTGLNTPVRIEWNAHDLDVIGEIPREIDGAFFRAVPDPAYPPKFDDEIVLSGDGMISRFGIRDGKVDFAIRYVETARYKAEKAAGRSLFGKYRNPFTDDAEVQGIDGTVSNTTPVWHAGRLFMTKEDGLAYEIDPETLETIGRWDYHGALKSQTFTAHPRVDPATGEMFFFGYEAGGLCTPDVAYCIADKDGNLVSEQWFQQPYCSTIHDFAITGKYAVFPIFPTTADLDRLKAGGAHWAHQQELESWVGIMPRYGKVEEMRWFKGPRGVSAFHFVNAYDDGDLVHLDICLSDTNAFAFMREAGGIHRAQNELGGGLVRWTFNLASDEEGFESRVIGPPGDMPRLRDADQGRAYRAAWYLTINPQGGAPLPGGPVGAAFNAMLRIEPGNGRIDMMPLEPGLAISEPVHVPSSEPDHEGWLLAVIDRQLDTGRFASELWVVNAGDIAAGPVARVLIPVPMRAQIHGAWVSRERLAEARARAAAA

[6] = molecular target: T6, LSD6 (Sphingomonas paucimobilis, UniProt Q8RQW2); experiment: oxygraph O2 consumption, E. coli lysate; type: biochemical; settings: 100 μM substrate
T6 construct: gene lsdA; pET41b, E. coli BL21(DE3) lysate
T6 sequence (Q8RQW2 1-491): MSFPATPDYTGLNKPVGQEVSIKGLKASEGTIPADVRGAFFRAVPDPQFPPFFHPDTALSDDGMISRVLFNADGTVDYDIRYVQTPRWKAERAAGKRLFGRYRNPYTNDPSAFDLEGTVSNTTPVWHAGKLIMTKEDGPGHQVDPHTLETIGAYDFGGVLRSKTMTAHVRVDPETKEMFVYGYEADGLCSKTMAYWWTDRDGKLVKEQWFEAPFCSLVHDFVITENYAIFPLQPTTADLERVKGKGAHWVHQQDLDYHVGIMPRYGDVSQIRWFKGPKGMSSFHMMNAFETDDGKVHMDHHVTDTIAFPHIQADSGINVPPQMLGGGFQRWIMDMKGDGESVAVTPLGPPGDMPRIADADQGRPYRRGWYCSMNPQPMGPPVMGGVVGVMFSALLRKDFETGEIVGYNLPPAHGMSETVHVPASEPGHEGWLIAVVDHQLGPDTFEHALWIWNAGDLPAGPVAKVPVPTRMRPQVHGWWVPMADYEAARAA

[7] = molecular target: T7, LSD4 (Sphingobium sp. SYK-6, UniProt Z9AM74RXJ0); experiment: O2 electrode (oxygraph) inhibition kinetics; type: biochemical; settings: read-out: Kic
T7 construct: residues 2-489 modelled; Fe2+ enzyme, Co-LSD4 for complexes
T7 sequence (Z9AM74RXJ0 1-489): B1 chain

[8] = molecular target: LSD4 (lignostilbene-α,β-dioxygenase 4) from Sphingobium sp. SYK-6 (Sphingobium sp. SYK-6); experiment: SEC-MALS; LSD4 at 2 mg/ml in 20 mM HEPES, pH 7.5, 100 mM NaCl, Superdex 75 10/300 GL, 0.4 ml/min, room temperature
[9] = substrate: Oc1ccc(/C=C/c2cc(O)cc(O)c2)cc1; experiment: O2 electrode (oxygraph) steady-state kinetics; type: biochemical, Sphingobium sp. SYK-6; settings: air-saturated HEPES I = 0.1 M, pH 7.5, 25 °C
Text: (§1) O2 electrode (oxygraph) steady-state kinetics on LSD4

[10] = substrate: COc1cc(/C=C/c2cc(/C=C/C(=O)O)cc(OC)c2O)ccc1O; experiment: O2 electrode (oxygraph) steady-state kinetics; type: biochemical, Sphingobium sp. SYK-6; settings: air-saturated HEPES I = 0.1 M, pH 7.5, 25 °C
Text: as §1

[11] = substrate: COc1cc(/C=C/c2ccc(O)cc2)cc(OC)c1; experiment: O2 electrode (oxygraph) steady-state kinetics; type: biochemical, Sphingobium sp. SYK-6; settings: air-saturated HEPES I = 0.1 M, pH 7.5, 25 °C
Text: as §1

[12] = substrate: COc1cc(/C=C/c2ccc(O)c(OC)c2)ccc1O; experiment: O2 electrode (oxygraph) steady-state kinetics; type: biochemical, Sphingobium sp. SYK-6; settings: air-saturated HEPES I = 0.1 M, pH 7.5, 25 °C
Text: as §1

| Molecule | Km [10] [µM] | kcat [10] [s⁻¹] | kcat/Km [10] [M⁻¹ s⁻¹] | Km [12] [µM] | kcat [12] [s⁻¹] | kcat/Km [12] [M⁻¹ s⁻¹] | other results |
| --- | --- | --- | --- | --- | --- | --- | --- |
| COc1cc(/C=C/c2cc(/C=C/C(=O)O)cc(OC)c2O)ccc1O [compound 1, 3-(4-hydroxy-3-(4-hydroxy-3-methoxystyryl)-5-methoxyphenyl) acrylate] |  |  |  |  |  |  | relative activity [1]: lysates containing LSD2, LSD3, or LSD4 preferentially cleaved DCA-S over lignostilbene; relative activity [2]: lysates containing LSD2, LSD3, or LSD4 preferentially cleaved DCA-S over lignostilbene |
| COc1cc(/C=C/c2ccc(O)c(OC)c2)ccc1O [compound 2, lignostilbene] |  |  |  |  |  |  | relative activity [1]: The seven soluble enzymes all cleaved lignostilbene; relative activity [3]: cell lysates containing LSD1, LSD5, LSD6, or LSD7 preferentially cleaved lignostilbene over DCA-S; relative activity [4]: cell lysates containing LSD1, LSD5, LSD6, or LSD7 preferentially cleaved lignostilbene over DCA-S; relative activity [2]: The seven soluble enzymes all cleaved lignostilbene; relative activity [5]: cell lysates containing LSD1, LSD5, LSD6, or LSD7 preferentially cleaved lignostilbene over DCA-S; relative activity [6]: cell lysates containing LSD1, LSD5, LSD6, or LSD7 preferentially cleaved lignostilbene over DCA-S |
| COc1cc(C=O)ccc1O [vanillin] |  |  |  |  |  |  | Ki [7]: 30 ± 8 µM |
| LSD4 (lignostilbene-α,β-dioxygenase 4) from Sphingobium sp. SYK-6 (enzyme) |  |  |  |  |  |  | stoichiometry N [8]: 2 |
| B1 | 12 ± 1 | 11 ± 1 | 900000 ± 100000 | 13 ± 1 | 18 ± 1 | 1.4e+06 ± 100000 | Km [9]: 22 ± 2 µM; kcat [9]: 2.1 ± 0.1 s⁻¹; kcat/Km [9]: 90000 ± 10000 M⁻¹ s⁻¹; Km [11]: 15 ± 2 µM; kcat [11]: 1.9 ± 0.1 s⁻¹; kcat/Km [11]: 130000 ± 10000 M⁻¹ s⁻¹ |
| B2 | 2.7 ± 0.5 | 0.035 ± 0.001 | 13000 ± 5000 | 8.5 ± 0.7 | 0.14 ± 0.01 | 16000 ± 2000 |  |
| B3 | 4.6 ± 0.5 | 4.1 ± 0.1 | 900000 ± 100000 | 10 ± 1 | 15.3 ± 0.4 | 1.5e+06 ± 100000 |  |
